Test results reported in paper PMC9858354, “Studies with neutralizing antibodies suggest CXCL8-mediated neutrophil activation is independent of C-C motif chemokine receptor-like 2 (CCRL2) ligand binding function” (PLOS ONE, 2023).

Experiments:
Details in all cases: one partner purified
[1] = molecular target: T1, human C-C motif chemokine receptor-like 2 (CCRL2) isoform b, on HEK-huCCRL2 cells (human, UniProt O00421 1-344); assay: flow cytometry on cells; serially diluted biotin-labeled ligand on HEK-huCCRL2, HEK-muCCRL2 or parental HEK cells (2x10^4 cells/well, 384-well), PBS + 0.1% BSA, 4°C 45 min, detected with RRX-streptavidin; MFI normalized to parental HEK cell binding; EC50 from four-parameter fit
T1 construct: C-C motif chemokine receptor-like 2 (CCRL2), human, isoform b, codon optimized cDNA; No tag is mentioned for the construct; also called human CCRL2
T1 sequence (looked up): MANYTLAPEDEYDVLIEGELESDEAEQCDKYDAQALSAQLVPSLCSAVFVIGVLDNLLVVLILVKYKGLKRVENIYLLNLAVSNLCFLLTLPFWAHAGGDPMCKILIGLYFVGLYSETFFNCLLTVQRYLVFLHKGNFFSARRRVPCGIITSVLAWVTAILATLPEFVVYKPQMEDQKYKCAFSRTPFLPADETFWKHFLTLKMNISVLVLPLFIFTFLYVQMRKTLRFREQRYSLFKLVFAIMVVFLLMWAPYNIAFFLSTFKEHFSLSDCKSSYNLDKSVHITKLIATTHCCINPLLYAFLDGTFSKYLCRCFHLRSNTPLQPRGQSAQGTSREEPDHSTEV

[2] = molecular target: T1, human C-C motif chemokine receptor-like …; assay: SPR; live-cell SPR microscopy (SPRm 200); HEK-huCCRL2 cells seeded on collagen-coated gold slides; analyte injected at 150 ul/min, contact 3 min, dissociation 5 min; running buffer PBS + 0.1% BSA; chemerin 10-400 nM; 1:1 binding model; n = 3
[3] = molecular target: T2, mouse C-C motif chemokine receptor-like 2 (CCRL2) isoform b, on HEK-muCCRL2 cells (mouse, UniProt O35457 1-360); assay: flow cytometry on cells; competition: HEK-huCCRL2 or HEK-muCCRL2 cells incubated with serially diluted unlabeled competitor at 4°C 45 min, then 10 nM biotin-labeled chemerin at 4°C 45 min, RRX-streptavidin; IC50 from four-parameter fit
T2 construct: C-C motif chemokine receptor-like 2 (CCRL2), mouse, printed as isoform b, codon optimized cDNA; also called murine CCRL2
T2 sequence (looked up): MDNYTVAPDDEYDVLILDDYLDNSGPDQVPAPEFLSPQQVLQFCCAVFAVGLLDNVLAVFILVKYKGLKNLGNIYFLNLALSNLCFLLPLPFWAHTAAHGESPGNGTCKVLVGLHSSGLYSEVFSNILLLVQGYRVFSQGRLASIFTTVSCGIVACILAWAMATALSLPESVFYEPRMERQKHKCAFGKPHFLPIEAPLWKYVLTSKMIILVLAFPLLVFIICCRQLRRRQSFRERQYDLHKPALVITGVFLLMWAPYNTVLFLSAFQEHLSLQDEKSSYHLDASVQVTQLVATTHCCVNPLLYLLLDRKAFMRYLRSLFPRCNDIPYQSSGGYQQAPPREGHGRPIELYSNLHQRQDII

[4] = molecular target: T2, mouse C-C motif chemokine receptor-like …; assay: flow cytometry on cells; serially diluted biotin-labeled ligand on HEK-huCCRL2, HEK-muCCRL2 or parental HEK cells (2x10^4 cells/well, 384-well), PBS + 0.1% BSA, 4°C 45 min, detected with RRX-streptavidin; MFI normalized to parental HEK cell binding; EC50 from four-parameter fit
[5] = molecular target: T1, human C-C motif chemokine receptor-like …; assay: flow cytometry on cells; competition: HEK-huCCRL2 or HEK-muCCRL2 cells incubated with serially diluted unlabeled competitor at 4°C 45 min, then 10 nM biotin-labeled chemerin at 4°C 45 min, RRX-streptavidin; IC50 from four-parameter fit

B1: biotin-labeled recombinant active human chemerin (residues 21-157) (ligand, UniProt Q99969 21-157, looked up)
chain: ELTEAQRRGLQVALEEFHKHPPVQWAFQETSVESAVDTPFPAGIFVRLEFKLQQTSCRKRDWKKPECKVRPNGRKRKCLACIKLGSEDKVLGRLVHCPIETQVLREAEEHQETQCLRVQRAGEDPHSFYFPGQFAFS
modifications: biotin (EZ-Link Sulfo-NHS-LC-Biotin, biotin-to-analyte molar ratio 5:1; any reactive primary amine)
notes: active human chemerin, Uniprot entry Q99969, residues 21-157; also called Biotin-chemerin; biotinylated chemerin; not shown: Fc (human IgG1, monovalent) with TEV site, N-terminal, cleaved
An EC50 [1] of 4.2 nM, a Kd [2] of 8.55 nM and a koff [2] of 0.00184 s⁻¹ were found for B1 in this work. The kon [2] was 297000 M⁻¹ s⁻¹.

B2: recombinant active mouse chemerin (residues 21-156), unlabeled (ligand, UniProt Q9DD06 21-156, looked up)
chain: EPELSETQRRSLQVALEEFHKHPPVQLAFQEIGVDRAEEVLFSAGTFVRLEFKLQQTNCPKKDWKKPECTIKPNGRRRKCLACIKMDPKGKILGRIVHCPILKQGPQDPQELQCIKIAQAGEDPHGYFLPGQFAFS
notes: active mouse chemerin, Uniprot entry Q9DD06, residues 21-156; Construct is named hIgG1 monovalent Fc-TEV-chemerin; also called murine chemerin; unlabeled murine chemerin; source: HEK 293F, transient, purified (Protein A, TEV cleavage, Protein A and Ni-NTA removal, Superdex 75 SEC); not shown: Fc (human IgG1, monovalent) with TEV site, N-terminal, cleaved
An IC50 [3] of 21.1 nM was found for B2 in this work.

B3: biotin-labeled recombinant active mouse chemerin (residues 21-156) (ligand, UniProt Q9DD06 21-156, looked up)
chain: B2 chain
modifications: biotin (EZ-Link Sulfo-NHS-LC-Biotin, biotin-to-analyte molar ratio 5:1; any reactive primary amine)
notes: active mouse chemerin, Uniprot entry Q9DD06, residues 21-156; also called biotinylated murine chemerin; biotin-labeled murine chemerin; not shown: Fc (human IgG1, monovalent) with TEV site, N-terminal, cleaved
An EC50 [4] of 143 nM was found for B3 in this work.

B4: recombinant active human chemerin (residues 21-157), unlabeled (ligand, UniProt Q99969 21-157, looked up)
chain: B1 chain
notes: active human chemerin, Uniprot entry Q99969, residues 21-157; Construct is named hIgG1 monovalent Fc-TEV-chemerin; also called label-free chemerin; unlabeled chemerin; source: HEK 293F, transient, purified (Protein A, TEV cleavage, Protein A and Ni-NTA removal, Superdex 75 SEC); not shown: Fc (human IgG1, monovalent) with TEV site, N-terminal, cleaved
A Kd [2] of 5.49 nM, a koff [2] of 0.00116 s⁻¹ and a kon [2] of 311000 M⁻¹ s⁻¹ were found for B4 in this work. The IC50 [5] was 7.55 nM.
